According to patent publication US20170355757A1 (Regeneron, published 2017):

T1: monkey C5-mmh (monkey, UniProt P01031 19-1676 (human entry), limits assumed)
T1 construct: recombinant, with C-terminal myc-myc-hexahistidine tag
T1 chain: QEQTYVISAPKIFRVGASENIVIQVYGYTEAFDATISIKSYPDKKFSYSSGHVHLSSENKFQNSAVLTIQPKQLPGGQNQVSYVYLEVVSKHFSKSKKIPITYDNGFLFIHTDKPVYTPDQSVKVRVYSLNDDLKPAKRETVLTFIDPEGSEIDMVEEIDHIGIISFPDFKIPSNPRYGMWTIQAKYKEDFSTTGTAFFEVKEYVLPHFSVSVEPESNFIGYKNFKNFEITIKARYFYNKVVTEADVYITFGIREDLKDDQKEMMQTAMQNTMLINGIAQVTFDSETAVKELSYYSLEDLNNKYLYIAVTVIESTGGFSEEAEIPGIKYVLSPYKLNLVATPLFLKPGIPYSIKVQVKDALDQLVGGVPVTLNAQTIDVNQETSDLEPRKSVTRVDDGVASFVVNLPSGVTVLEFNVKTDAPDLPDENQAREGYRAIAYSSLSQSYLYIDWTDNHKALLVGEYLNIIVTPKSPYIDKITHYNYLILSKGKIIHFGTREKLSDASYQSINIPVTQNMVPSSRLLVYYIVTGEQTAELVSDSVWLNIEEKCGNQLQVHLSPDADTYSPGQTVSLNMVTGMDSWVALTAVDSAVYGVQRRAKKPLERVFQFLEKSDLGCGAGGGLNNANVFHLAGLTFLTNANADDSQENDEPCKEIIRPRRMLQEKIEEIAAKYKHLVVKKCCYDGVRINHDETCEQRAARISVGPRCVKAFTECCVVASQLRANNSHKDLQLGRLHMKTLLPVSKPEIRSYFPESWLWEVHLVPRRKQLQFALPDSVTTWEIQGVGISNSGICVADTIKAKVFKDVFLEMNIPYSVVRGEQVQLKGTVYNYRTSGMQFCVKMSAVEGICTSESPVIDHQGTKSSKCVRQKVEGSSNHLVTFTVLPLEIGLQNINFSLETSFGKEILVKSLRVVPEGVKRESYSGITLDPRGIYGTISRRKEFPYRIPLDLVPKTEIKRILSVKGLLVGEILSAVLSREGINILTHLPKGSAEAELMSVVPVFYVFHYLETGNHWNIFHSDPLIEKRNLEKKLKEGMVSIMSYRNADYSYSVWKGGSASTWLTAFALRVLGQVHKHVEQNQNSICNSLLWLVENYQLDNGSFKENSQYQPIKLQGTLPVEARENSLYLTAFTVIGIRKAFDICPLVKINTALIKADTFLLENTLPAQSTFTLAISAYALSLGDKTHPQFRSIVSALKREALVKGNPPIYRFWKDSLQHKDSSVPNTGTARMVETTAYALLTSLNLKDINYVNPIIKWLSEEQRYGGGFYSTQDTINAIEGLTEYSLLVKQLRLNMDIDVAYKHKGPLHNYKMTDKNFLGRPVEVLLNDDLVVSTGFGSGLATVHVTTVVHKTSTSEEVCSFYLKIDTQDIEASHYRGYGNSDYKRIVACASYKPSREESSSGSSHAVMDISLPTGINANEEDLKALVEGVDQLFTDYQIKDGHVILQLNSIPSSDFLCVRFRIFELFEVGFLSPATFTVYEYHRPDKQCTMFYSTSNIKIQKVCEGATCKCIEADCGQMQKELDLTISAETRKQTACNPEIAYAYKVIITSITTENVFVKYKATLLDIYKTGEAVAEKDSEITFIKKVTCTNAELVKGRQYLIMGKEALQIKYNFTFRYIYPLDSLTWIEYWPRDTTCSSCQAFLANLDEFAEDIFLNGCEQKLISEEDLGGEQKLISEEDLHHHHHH


Tests used:
African green monkey C5 [1] = molecular target: T2, African green monkey C5 (African green monkey); experiment: cell-based or functional assay
monkey C5-mmh [2] = molecular target: T1, monkey C5-mmh; experiment: SPR (Biacore), mAb captured, dissociation of monkey C5 at pH7.4 vs pH6.0, 37°C
Cynomolgus monkey C5 = Cynomolgus monkey C5 (cynomolgus monkey, UniProt A0A2K5U1T1 19-1676); experiment: cell-based or functional assay
African green monkey C5 [3] = molecular target: T2, African green monkey C5; experiment: cell-based or functional assay; remark: listed apart in the source
human C5 R885C-mmh = human C5 R885C-mmh (human, UniProt P01031 19-1676); experiment: cell-based or functional assay
human C5 R885H-mmh = human C5 R885H-mmh (human, UniProt P01031 19-1676); experiment: cell-based or functional assay
human C5 [4] = molecular target: T3, human C5 (human, UniProt P01031 19-1676); experiment: cell-based or functional assay
human C5 [5] = molecular target: T3, human C5; experiment: SPR (Biacore), mAb captured, dissociation of human C5 at pH7.4 vs pH6.0, 37°C
Procedure: Effect of pH on the rate of dissociation of recombinant human C5 bound to purified anti-C5 monoclonal antibodies was determined using a real-time surface plasmon resonance biosensor using a Biacore T200 instrument. The Biacore sensor surface was first derivatized by amine coupling with a monoclonal mouse anti-human Fc antibody (GE, # BR-1008-39) to capture anti-C5 monoclonal antibodies expressed with human IgG4 Fc. All Biacore binding studies were performed using two running buffers PBS-T, pH7.4 (0.01M Na₂HPO₄/NaH₂PO₄, 0.15M NaCl, 0.05% v/v Tween-20, adjusted to pH7.4) and PBS-T, pH6.0 (0.01M Na₂HPO₄/NaH₂PO₄, 0.15M NaCl, 0.05% v/v Tween-20, adjusted to pH6.0). […] Binding dissociative half-lives (t %) were calculated from kd as: […]

human C5 [6] = molecular target: T3, human C5; experiment: cell-based or functional assay; remark: listed apart in the source
monkey C5-mmh [7] = molecular target: T1, monkey C5-mmh; experiment: SPR (Biacore), mAb captured, dissociation of monkey C5 at pH7.4 vs pH6.0, 25°C

Row | t½ Ratio pH7.4/pH6.0 (monkey C5-mmh [2]) | IC50, inhibition of CDC of Daudi cells, 1.66% African Green monkey serum (African green monkey C5 [3]) [nM] | IC50, inhibition of CDC of Daudi cells, C5 depleted human serum and 6.6 nM C5 Variant R885C (human C5 R885C-mmh) [nM] | IC50, inhibition of CDC of Daudi cells, C5 depleted human serum and 6.6 nM C5 Variant R885H (human C5 R885H-mmh) [nM] | IC50, inhibition of CDC of Daudi cells, 1.66% human serum (human C5 [4]) [nM] | t½ Ratio pH7.4/pH6.0 (human C5 [5]) | t½ Ratio pH7.4/pH6.0 (monkey C5-mmh [7]) | Binder | AGM AP % Max Inhibition, hemolysis assay, 5% serum (African green monkey C5 [1]) [%] | AGM CP % Max Inhibition, hemolysis assay, 5% serum (African green monkey C5 [1]) [%] | AGM Serum AP IC50, hemolysis assay, 5% serum (African green monkey C5 [1]) [nM] | AGM Serum CP IC50, hemolysis assay, 5% serum (African green monkey C5 [1]) [nM] | Cyno AP % Max Inhibition, hemolysis assay, 5% serum (Cynomolgus monkey C5) [%] | Cyno CP % Max Inhibition, hemolysis assay, 5% serum (Cynomolgus monkey C5) [%] | Cyno Serum AP IC50, hemolysis assay, 5% serum (Cynomolgus monkey C5) [nM] | Cyno Serum CP IC50, hemolysis assay, 5% serum (Cynomolgus monkey C5) [nM] | Human AP % Max Inhibition, hemolysis assay, NHS (human C5 [6]) [%] | Human AP IC50, hemolysis assay, NHS (human C5 [6]) [nM] | Human CP % Max Inhibition, hemolysis assay, NHS (human C5 [6]) [%] | Human CP IC50, hemolysis assay, NHS (human C5 [6]) [nM]
1 | 4.4 | 3.5 | 1 | 1.9 | 2.5 | 0.2 | 9.2 | H4H12167P (antibody, human IgG4, V domains shown, H4H: human IgG4 Fc with S108P hinge mutation) VH: QVQLVESGGGLVKPGGSLRLSCAASGFTFSDSYMSWIRQAPGKGLEWISYIGSSGNTFYYADSVKGRFTISRDNANNLLYLQMTSLRAEDTAVYYCAREEGDFWSAVDSWGQGTLVTVSS VL: DIQLTQSPSFLSASVGDRVTITCWASQGISSYLAWYQQKPGKAPKLLIHTASTLQSGVPSRFSGSGSGTEFTLTISNLQPEDFATYYCQQLNSYPFTFGPGTKVDIK | 53.4 | 90.5 | 69.5 | 69.5 | 98.3 | 100 | 7.6 | 21.3 | 64.8 | 15.5 | 99.9 | 3.68
2 | 0.5 | 4.4 | 0.45 | 1.1 | 1.5 | 0.8 | 0.37 | H4H11686N (antibody, human IgG4, V domains shown, tested with H4H prefix (human IgG4 Fc with S108P hinge mutation); also called H2M11686N) VH: QVQLVESGGGLVKPGGSLRLSCAASGFTFSDYYMSWIRQAPGKGLEWVSYISSSGNTIKYADSMKGRFTISRDNAKKSLFVEMNSLRAEDTAVYYCARYKSSSDYFDHWGQGTLVTVSS VL: EIVLTQSPATLSLSPGERATLSCRASQSVRSYLAWYQQKPGQAPRLLIYDASNRATAIPARFSGSGSGTDFTLTISSLEPEDLAVYYCQQSGNWPLTFGGGTKVEIK | 50.4 | 49.3 | 163 | 48.2 | 98.7 | 94.5 | 9 | 14.1 | 76.2 | 13 | 97.4 | 3.09
3 | 3.3 | 3.7 | 1.1 | 2.1 | 3.4 | 0.8 | 9.7 | H4H12163P (antibody, human IgG4, V domains shown, H4H: human IgG4 Fc with S108P hinge mutation) VH: EVQLVESGGDLVQPGGSLRLSCAASGFTFSSYAMNWVRQGPGKGLEWVSAISGRGDSTYYADSVKGRLTISRDNSKNTLYLQMNSLRAEDTAVYYCVKEGEQLVYWYFDLWGRGTLVTVSS VL: DIQMTQSPSSLSASVGDRVTITCRASQTISNFLHWYQQKPGKAPKLLIYAASSLQSGVPSRFSGSGSGTDFTLTISSLQPEDFSTYFCQQSYTTPLTFGGGTKVEIK | 58.5 | 83.2 | 216 | 69 | 98.5 | 96.4 | 10.2 | 16.5 | 66 | 20.5 | 96.1 | 2.72
